This note sets out measurements from article PMC3161968.

This assay concerns the target recombinant flagellin type B of P. aeruginosa (P. aeruginosa) (UniProt P72151).
Sequence of UniProt P72151 (P72151 whole entry): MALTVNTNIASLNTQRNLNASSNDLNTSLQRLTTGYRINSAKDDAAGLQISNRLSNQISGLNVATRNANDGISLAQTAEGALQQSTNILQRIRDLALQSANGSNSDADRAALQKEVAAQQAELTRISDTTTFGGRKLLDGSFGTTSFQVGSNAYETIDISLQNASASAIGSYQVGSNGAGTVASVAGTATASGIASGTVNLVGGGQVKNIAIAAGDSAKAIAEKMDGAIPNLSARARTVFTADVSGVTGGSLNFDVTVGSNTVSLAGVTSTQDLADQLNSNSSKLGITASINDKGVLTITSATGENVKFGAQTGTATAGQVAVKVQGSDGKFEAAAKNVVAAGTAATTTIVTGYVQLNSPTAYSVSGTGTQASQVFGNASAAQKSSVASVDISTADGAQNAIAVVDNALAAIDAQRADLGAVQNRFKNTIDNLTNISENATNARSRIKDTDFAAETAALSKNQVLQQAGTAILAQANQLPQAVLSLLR

In the case of “recombinant His-AprA (alkaline protease of P. aeruginosa) (from UniProt Q03023 10-479) (enzyme)”, the inhibition of flagellin-induced IL-8 production by HEK/TLR5 cells (30 ng/ml P. aeruginosa flagellin; the pair whose signalling is blocked is m6 with m7); AprA acts by degrading flagellin came out at 30 ng/mL.
